Laboratory results published in publication PMC9569350, “Antarctic aldehyde dehydrogenase from Flavobacterium PL002 as a potent catalyst for acetaldehyde determination in wine” (Scientific Reports, 2022).

Experiments:
CC=O = assay: purified protein; details: 10 mM NAD+ (saturating), 100 mM potassium phosphate pH 7.5, 25 °C, free enzyme
[1] = test system: NC(=O)c1ccc[n+]([C@@H]2O[C@H](COP(=O)(O)OP(=O)(O)OC[C@H]3O[C@@H](n4cnc5c(N)ncnc54)[C@H](O)[C@@H]3O)[C@@H](O)[C@H]2O)c1; assay: purified protein; details: 10 mM acetaldehyde (saturating), 100 mM potassium phosphate pH 7.5, 25 °C, free enzyme, varied: cofactor

Substance: S2-ALDH (Flavobacterium sp. PL002)
- Km (CC=O): 1880 ± 700 µM
- Vmax (CC=O): 2.64 µmol/min/mg
- kcat (CC=O): 0.432 ± 0.025 s⁻¹
- kcat/Km (CC=O): 230 ± 85.2 M⁻¹ s⁻¹
- Km [1]: 2870 ± 480 µM
- Vmax [1]: 0.74 µmol/min/mg
- kcat [1]: 0.121 ± 0.026 s⁻¹
- kcat/Km [1]: 42.2 ± 7.05 M⁻¹ s⁻¹
